B1: aluC09M12: cytochrome P450 aluC09 mutant T291E; amino acid sequence SEQ ID NO: 12 (protein, listed as Amycolatopsis lurida)
chain: MTDVEETTATLPLARKCPFSPPPEYERLRRESPVSRVGLPSGQTAWALTRLEDIREMLSSPHFSSDRQSPSFPLMVARQIRREDKPFRPSLIAMDPPEHSRARRDVVGEFTVKRMKALQPRIQQIVDEHLDALLAGPKPADLVQALSLPVPSLVICELLGVPYSDHEFFQSCSSRMLSREVTAEERMTAFEQLENYLDELVTKKEANATEDDLLGRQILKQRETGEADHGELVGLAFLLLIAGHETTANMISLGTVTLLENPDQLAKIKADPGKTLAAIEELLRVFTIAEEATSRFATADVEIGGTLIRAGEGVVGLSNAGNHDPDGFENPDTFDIERGARHHVAFGFGVHQCLGQNLARLELQIVFDTLFRRVPGLRIAVPVDELPFKHDSTIYGLHALPVTW
B2: aluC09M17: cytochrome P450 aluC09 mutant T291N; amino acid sequence SEQ ID NO: 16 (protein, listed as Amycolatopsis lurida)
chain: MTDVEETTATLPLARKCPFSPPPEYERLRRESPVSRVGLPSGQTAWALTRLEDIREMLSSPHFSSDRQSPSFPLMVARQIRREDKPFRPSLIAMDPPEHSRARRDVVGEFTVKRMKALQPRIQQIVDEHLDALLAGPKPADLVQALSLPVPSLVICELLGVPYSDHEFFQSCSSRMLSREVTAEERMTAFEQLENYLDELVTKKEANATEDDLLGRQILKQRETGEADHGELVGLAFLLLIAGHETTANMISLGTVTLLENPDQLAKIKADPGKTLAAIEELLRVFTIAENATSRFATADVEIGGTLIRAGEGVVGLSNAGNHDPDGFENPDTFDIERGARHHVAFGFGVHQCLGQNLARLELQIVFDTLFRRVPGLRIAVPVDELPFKHDSTIYGLHALPVTW
B3: aluC09M31: cytochrome P450 aluC09 mutant T291S; amino acid sequence SEQ ID NO: 36 (protein, listed as Amycolatopsis lurida)
chain: MTDVEETTATLPLARKCPFSPPPEYERLRRESPVSRVGLPSGQTAWALTRLEDIREMLSSPHFSSDRQSPSFPLMVARQIRREDKPFRPSLIAMDPPEHSRARRDVVGEFTVKRMKALQPRIQQIVDEHLDALLAGPKPADLVQALSLPVPSLVICELLGVPYSDHEFFQSCSSRMLSREVTAEERMTAFEQLENYLDELVTKKEANATEDDLLGRQILKQRETGEADHGELVGLAFLLLIAGHETTANMISLGTVTLLENPDQLAKIKADPGKTLAAIEELLRVFTIAESATSRFATADVEIGGTLIRAGEGVVGLSNAGNHDPDGFENPDTFDIERGARHHVAFGFGVHQCLGQNLARLELQIVFDTLFRRVPGLRIAVPVDELPFKHDSTIYGLHALPVTW

Assays:
Type in all cases: biochemical
[1] = Metabolism of epothilone B by P450 aluC09 and mutants; details: percent of substrate being converted; 0.125 mg/ml, 27° C., 16-20 hours; [CYP] per enzyme as in Table 8
Summary of the method: (§1)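 Read-out was substrate conversion by UPLC-MS after acetonitrile extraction. Reactions had contained lyophilised aluC09 mutant enzymes with ferredoxin and ferredoxin reductase partners, substrate at 0.125 mg/ml, and a glucose-6-phosphate dehydrogenase NADPH-regenerating system, shaken 16-20 hours at 27° C.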

[2] = Metabolism of tivantinib by P450 aluC09 and mutants; details: percent of substrate being converted; 0.125 mg/ml, 27° C., 16-20 hours; [CYP] per enzyme as in Table 8
Summary of the method: as §1

[3] = Hydroxylation / de-N-ethylation of napropamide catalysed by cytochrome P450 aluC09 and mutants; details: for Desethyl Napropamide (1.62 min) / Desethyl-hydroxy-Napropamide (1.41 min) / Hydroxy-Napropamide (1) (1.53 min) / Hydroxy-Napropamide (2), (1.52 min) / M-2Da (unidentified) (1.89 min) / Napropamide (substrate): % by UV peak area at 275 nm, 0.125 mg/ml substrate, 27° C., 16-20 hours; for Hydroxylated Ratio 2:1: napropamide, ratio of UV peak areas
Summary of the method: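 Conversion of napropamide (0.125 mg/ml) to hydroxylated and de-ethylated metabolites was measured by UPLC-MS after acetonitrile extraction. Reactions ran 16-20 h at 27° C in pH 7.4 potassium phosphate (50 mM) with 5 mM MgCl2, 1 mM NADP, 5 mM G6P and 2 UN/ml G6PDH. Enzymes were lyophilised P450 aluC09 variants, ferredoxin aluF03 and ferredoxin reductase SCF15A.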

[4] = Metabolism of tofacitinib by P450 aluC09 and mutants; details: percent of substrate being converted; 0.125 mg/ml, 27° C., 16-20 hours; [CYP] per enzyme as in Table 8
Summary of the method: as §1

[5] = Metabolism of valsartan by P450 aluC09 and mutants; details: percent of substrate being converted; 0.125 mg/ml, 27° C., 16-20 hours; [CYP] per enzyme as in Table 8
Summary of the method: as §1

[6] = Metabolism of buparvaquone by P450 aluC09 and mutants; details: percent of substrate being converted; 0.125 mg/ml, 27° C., 16-20 hours; [CYP] per enzyme as in Table 8
Summary of the method: as §1

[7] = Metabolism of celecoxib by P450 aluC09 and mutants; details: percent of substrate being converted; 0.125 mg/ml, 27° C., 16-20 hours; [CYP] per enzyme as in Table 8
Summary of the method: as §1

[8] = Hydroxylation of diclofenac catalysed by cytochrome P450 aluC09 and mutants (UPLC-PDA-MS); details: for 4′,5-dihydroxy-diclofenac 1.38 mins / 4′-hydroxy-diclofenac (1) 1.62 mins / 5-hydroxy-diclofenac (2) 1.58 mins / Diclofenac (Substrate) 1.81 mins: % by UV peak area at 275 nm, 0.125 mg/ml substrate, 27° C., 16-20 hours; for Hydroxylated Ratio hydroxy 1:hydroxy 2: diclofenac, ratio of UV peak areas at 275nm
Summary of the method: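 Conversion of diclofenac (0.125 mg/ml) to hydroxy metabolites measured by UPLC with UV and MS detection, identities confirmed by authentic samples. Reactions used P450 aluC09 variants with ferredoxin aluF03, reductase SCF15A and an NADP/G6P/G6PDH recycling system, pH 7.4 phosphate, 27° C, 16-20 hours.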

[9] = Metabolism of ruxolitinib by P450 aluC09 and mutants; details: percent of substrate being converted; 0.125 mg/ml, 27° C., 16-20 hours; [CYP] per enzyme as in Table 8
Summary of the method: as §1

[10] = Hydroxylation of flufenamic acid catalysed by cytochrome P450 aluC09 and mutants; details: for Flufenamic Acid (Substrate) 1.93 mins / Hydroxy-Flufenamic Acid (1) 1.69 mins / Hydroxy-Flufenamic Acid (2) 1.65 mins: % by UV peak area at 275 nm, 0.125 mg/ml substrate, 27° C., 16-20 hours; for Hydroxylated Ratio 1:2: flufenamic acid, ratio of UV peak areas at 275 nm
Summary of the method: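 Conversion measured by UPLC-MS (UV and MS) after acetonitrile extraction, following 16-20 h shaking at 27° C. Reaction: 0.125 mg/ml substrate, P450 mutant plus ferredoxin aluF03 and reductase SCF15A, 5 mM G6P, 1 mM NADP, 2 U/ml G6PDH, pH 7.4 phosphate with 5 mM MgCl2.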

[11] = O-demethylation of indomethacin catalysed by cytochrome P450 aluC09 and mutants; details: % by UV peak area at 275 nm; 0.125 mg/ml substrate, 27° C., 16-20 hours
Summary of the method: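 Conversion was quantified by UPLC-UV/MS after acetonitrile extraction of 16-20 h, 27° C. shaken reactions. These contained 0.125 mg/ml substrate, mutant P450 with partner ferredoxin and reductase, 1 mM NADP plus 5 mM G6P and 2 U/ml G6PDH, in pH 7.4 phosphate with 5 mM MgCl2.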

[12] = Metabolism of ritonavir by P450 aluC09 and mutants; details: percent of substrate being converted; 0.125 mg/ml, 27° C., 16-20 hours; [CYP] per enzyme as in Table 8
Summary of the method: as §1

[13] = Metabolism of bosentan by P450 aluC09 and mutants; details: percent of substrate being converted; 0.125 mg/ml, 27° C., 16-20 hours; [CYP] per enzyme as in Table 8
Summary of the method: as §1

[14] = Metabolism of BIRB796 by P450 aluC09 and mutants; details: percent of substrate being converted; 0.125 mg/ml, 27° C., 16-20 hours; [CYP] per enzyme as in Table 8
Summary of the method: as §1

[15] = Hydroxylation of aceclofenac catalysed by cytochrome P450 aluC09 and mutants; details: for Aceclofenac (Substrate) (1.80 mins) / Dihydroxy-Aceclofenac (1.42 mins) / Hydroxy-Aceclofenac (1) (1.64 min) / Hydroxy-Aceclofenac (2) (1.60 min): % by UV peak area at 275 nm, 0.125 mg/ml substrate, 27° C., 16-20 hours; for Hydroxylated Ratio 2:1: aceclofenac, ratio of UV peak areas at 275 nm
Summary of the method: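 Conversion was assessed by UPLC-MS (UV and MS detection) after acetonitrile extraction of reactions run 16-20 h at 27° C, shaking. Reactions contained substrate at 0.125 mg/ml, P450 mutant plus ferredoxin and reductase partners, 1 mM NADP with glucose-6-phosphate regeneration, in phosphate buffer pH 7.4.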

[16] = Metabolism of 4-pyrrolidylacetophenone by P450 aluC09 and mutants; details: percent of substrate being converted; 0.125 mg/ml, 27° C., 16-20 hours; [CYP] per enzyme as in Table 8
Summary of the method: as §1

Molecule | % conversions (avg) Epothilone B [1] [%] | % conversions (avg) Tivantinib [2] [%] | Desethyl Napropamide (1.62 min) [3] [%] | Desethyl-hydroxy-Napropamide (1.41 min) [3] [%] | Hydroxy-Napropamide (1) (1.53 min) [3] [%] | Hydroxy-Napropamide (2), (1.52 min) [3] [%] | M-2Da (unidentified) (1.89 min) [3] [%] | Napropamide (substrate) [3] [%] | Hydroxylated Ratio 2:1 [3] | % conversions (avg) Tofacitinib [4] [%] | % conversions (avg) Valsartan [5] [%] | % conversions (avg) Buparvaquone [6] [%] | % conversions (avg) Celecoxib [7] [%] | 4′,5-dihydroxy-diclofenac 1.38 mins [8] [%] | 4′-hydroxy-diclofenac (1) 1.62 mins [8] [%] | 5-hydroxy-diclofenac (2) 1.58 mins [8] [%] | Diclofenac (Substrate) 1.81 mins [8] [%] | Hydroxylated Ratio hydroxy 1:hydroxy 2 [8] | % conversions (avg) Ruxolitinib [9] [%] | Flufenamic Acid (Substrate) 1.93 mins [10] [%] | further results
B1 | 50.8 | 7.2 | 46.0 | 9.7 | 2.5 | 5.3 | 5.8 | 34.1 | 2.1 | 0 | 38 | 9.7 | 5.4 | 1.8 | 30.3 | 10.8 | 58.0 | 2.8 | 48.9 | 95.9 | Hydroxy-Flufenamic Acid (1) 1.69 mins [10]: 2.0%; Hydroxy-Flufenamic Acid (2) 1.65 mins [10]: 2.1%; Hydroxylated Ratio 1:2 [10]: 0.9; Indomethacin (1.74 mins) [11]: 94.6%; O-demethyl-Indomethacin (1.52 mins) [11]: 5.4%; % conversions (avg) Ritonavir [12]: 31.9%; % conversions (avg) Bosentan [13]: 100%; % conversions (avg) BIRB796 [14]: 23%; Aceclofenac (Substrate) (1.80 mins) [15]: 25.2%; Dihydroxy-Aceclofenac (1.42 mins) [15]: 27.8%; Hydroxy-Aceclofenac (1) (1.64 min) [15]: 7.9%; Hydroxy-Aceclofenac (2) (1.60 min) [15]: 39.1%; Hydroxylated Ratio 2:1 [15]: 4.9; % conversions (avg) 4-pyrrolidylacetophenone [16]: 30.8%
B2 | 16.8 | 53.9 | 53.7 | 10.6 | 0.9 | 3.1 | 6.0 | 28.7 | 3.4 | 4.4 | 21.9 | 17.9 | 8.1 | 3.2 | 44.8 | 21.8 | 32.3 | 2.1 | 33.9 | 94.4 | Hydroxy-Flufenamic Acid (1) 1.69 mins [10]: 3.4%; Hydroxy-Flufenamic Acid (2) 1.65 mins [10]: 2.2%; Hydroxylated Ratio 1:2 [10]: 1.6; Indomethacin (1.74 mins) [11]: 84.4%; O-demethyl-Indomethacin (1.52 mins) [11]: 15.6%; % conversions (avg) Ritonavir [12]: 51.7%; % conversions (avg) Bosentan [13]: 100%; % conversions (avg) BIRB796 [14]: 23.2%; Aceclofenac (Substrate) (1.80 mins) [15]: 9.2%; Dihydroxy-Aceclofenac (1.42 mins) [15]: 43.2%; Hydroxy-Aceclofenac (1) (1.64 min) [15]: 6.9%; Hydroxy-Aceclofenac (2) (1.60 min) [15]: 40.8%; Hydroxylated Ratio 2:1 [15]: 5.9; % conversions (avg) 4-pyrrolidylacetophenone [16]: 21.7%
B3 | 35.3 | 56 | 44.8 | 4.6 | 2.4 | 5.1 | 7.0 | 37.9 | 2.1 | 1.5 | 33.9 | 11.3 | 3.6 | 3.3 | 43.3 | 22.8 | 32.3 | 1.9 | 41.7 | 89.1 | Hydroxy-Flufenamic Acid (1) 1.69 mins [10]: 6.8%; Hydroxy-Flufenamic Acid (2) 1.65 mins [10]: 4.1%; Hydroxylated Ratio 1:2 [10]: 1.7; Indomethacin (1.74 mins) [11]: 84.8%; O-demethyl-Indomethacin (1.52 mins) [11]: 15.2%; % conversions (avg) Ritonavir [12]: 73.5%; % conversions (avg) Bosentan [13]: 99%; % conversions (avg) BIRB796 [14]: 15.3%; Aceclofenac (Substrate) (1.80 mins) [15]: 12.3%; Dihydroxy-Aceclofenac (1.42 mins) [15]: 43.1%; Hydroxy-Aceclofenac (1) (1.64 min) [15]: 8.5%; Hydroxy-Aceclofenac (2) (1.60 min) [15]: 36.1%; Hydroxylated Ratio 2:1 [15]: 4.2; % conversions (avg) 4-pyrrolidylacetophenone [16]: 4.9%

Source: patent publication US11618906B2, “Hydroxylation techniques” (HYPHA DISCOVERY LTD., priority 2018, dated 2023)
